According to the supplement of paper PMC12764529:
± gives the half width of the 95% confidence interval.

Experiments:
[1] = folding stability dG unfold from trypsin proteolysis; higher = more stable
Outline: (§1)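 Only designs with AlphaFold2 dimer inter-PAE above 15 were retained; each was a mini-protein under 80 residues with no cysteine, in a PA-tagged cDNA display construct. After digestion with trypsin and chymotrypsin and sequencing, K50 was inferred by Bayesian fitting of counts, and unfolding free energy was derived per protease or combined against a sequence-predicted unfolded-state K50 and a shared folded-state K50.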

[2] = folding stability dG unfold from chymotrypsin proteolysis; higher = more stable
Outline: as §1

[3] = folding stability dG unfold (combined trypsin and chymotrypsin); higher = more stable
Outline: as §1

Row | Sequence | folding stability dG unfold [1] | folding stability dG unfold [2] | folding stability dG unfold [3]
1 | SVPVAPDKTYEIENIEEGNYLIKGLTLTPLPDGSVKIDKDIEPIEIPPKPPPLKYDPVKGGFIKPNDPLLSA [r9_603_JUSTAS] | 0.319 ± 0.08 kcal/mol | 0.592 ± 0.19 kcal/mol | 0.434 ± 0.14 kcal/mol
2 | SAGGSAGGSAGKIEIKVVKKTPNYVYYEIRFEETKKTIIVKAKSKEDAEEAAKKLLKELKSAGGSAGGSAGG [r11_848_TrROS_Hall] | 2.31 ± 0.099 kcal/mol | 2.88 ± 0.062 kcal/mol | 2.62 ± 0.17 kcal/mol
3 | SAGGETVTTESYQPLPTGPGLSFKNVVTTEEDVNNPGVKYTTTEVTAELVNPEGDESTTTTSTVTAASAGGS [r16_217_JUSTAS] | 0.0281 ± 0.035 kcal/mol | 0.00547 ± 0.22 kcal/mol | 0.112 ± 0.14 kcal/mol
4 | SAGGSASLESEDVEEVSTSTSVVPLPDGGTATVTTTTYRHKEPGTLVTRTTTTFPGGATTTTVTLLSAGGSA [r15_188_JUSTAS] | 1.69 ± 0.039 kcal/mol | 2.04 ± 0.022 kcal/mol | 1.91 ± 0.025 kcal/mol
5 | SAGGSAGGSAGMPKVEAVDISYSADPNSKSYTITIKSPDGEPIVLTLNSPSEIENLELVLSAGGSAGGSAGG [r11_711_JUSTAS] | 1.19 ± 0.026 kcal/mol | 1.34 ± 0.1 kcal/mol | 1.34 ± 0.13 kcal/mol
6 | SAGGSAGGSIRIIFPVDNPEQAENIAEEIAERFGIQIEDIEVEQVPNGMYIVTFEVKIPPEMISAGGSAGGS [r12_577_TrROS] | 2.41 ± 0.13 kcal/mol | 2.28 ± 0.036 kcal/mol | 2.38 ± 0.096 kcal/mol
7 | SAGEEPPEVTIKVVEKDGKLVIEVEYNGKTLTITLEDGEKIEIKFPEGMSEEELLEEAKRLAKELAEKSAGG [r19_170_TrROS_Hall] | 3.05 ± 0.35 kcal/mol | 1.9 ± 0.25 kcal/mol | 2.63 ± 0.39 kcal/mol
8 | SAGNFNIKEQKETDGRRVIEIPMPGSGHEITIVFERNPDGPRKININMNGPMADYLREALPGIDRVEIISAG [r5_933_TrROS] | 0.187 ± 0.31 kcal/mol | 0.275 ± 0.26 kcal/mol | 0.213 ± 0.22 kcal/mol
9 | SAGGSAGGSAGGMVIKITTESGEKIEIEVPEEDEEKVKELVKELEKAGFKVKKVEVFEPSAGGSAGGSAGGS [r10_231_TrROS_Hall] | 1.6 ± 0.11 kcal/mol | 1.87 ± 0.073 kcal/mol | 1.77 ± 0.17 kcal/mol
10 | SAGGSVTITSITSIDTSSLSPDSVVTADVPDGKPVLIKGKVPPDGSVILTFYTPDGKPVATFTIPSSAGGSA [r2_323_JUSTAS] | 0.508 ± 0.017 kcal/mol | 0.779 ± 0.056 kcal/mol | 0.669 ± 0.06 kcal/mol
11 | SAGNPVLLKRPFIDPENGEPVYELTLFDPESNIVTTLFFNSDGKVIAVAVAYVPPETDEVDIELSVFDGSAG [r5_747_TrMRF] | 1.52 ± 0.053 kcal/mol | 1.36 ± 0.099 kcal/mol | 1.47 ± 0.062 kcal/mol
12 | SAGGSAGGSSPDWSVKKSTVTVTITFPEEKYFEPETKKEVAKRPVITIEIEIEVVETLPASLISAGGSAGGS [r12_600_JUSTAS] | 1.65 ± 0.067 kcal/mol | 1.44 ± 0.096 kcal/mol | 1.63 ± 0.19 kcal/mol
13 | SKIKKIKRVEIFKKKEKGYVVKITVEIDGKEYEFTVPAGMSLEEALKELLKNKDVKIKSVEIKPVSKEELSA [r9_607_TrROS_Hall] | 0.0722 ± 0.22 kcal/mol | 0.734 ± 0.18 kcal/mol | 0.595 ± 0.29 kcal/mol
14 | SAGMKEVTVSKDELEEILKKLPPNKTYKVTLYNPNGPTYEFTVTVENDTIKINEGPPNKSENLKVTLVSSAG [r5_85_JUSTAS] | 1.53 ± 0.036 kcal/mol | 2.32 ± 0.024 kcal/mol | 2 ± 0.051 kcal/mol
15 | SAGGSAWEFVKEIAKELQEKHPGYQVNVDVEPQRNPENDRRYIRIWIHVQDKNGEIRRTWEIMIPFSAGGSA [r15_1048_TrROS] | 3.22 ± 0.053 kcal/mol | 3.461 ± 0.018 kcal/mol | 3.44 ± 0.12 kcal/mol
16 | SAGGSAGGSAGGSLAFEGSFRFRKLKLTFKRKLTRTRPDGEPEEFEEELELEVEVVLPVSAGGSAGGSAGGS [r4_418_TrMRF] | 3.77 ± 0.09 kcal/mol | 4.84 ± 0.15 kcal/mol | 4.21 ± 0.4 kcal/mol
17 | SAGGSAGGSAGGKNKYYVRVKIKNPNGRTRKINFPFDDPDQIKEQAQKEGWKIDEVEPVSAGGSAGGSAGGS [r10_882_TrROS] | -0.319 ± 0.25 kcal/mol | -0.064 ± 0.29 kcal/mol | -0.121 ± 0.18 kcal/mol
18 | SAGGMKKVKALVVANPFDPNKYKVFVKAEEEEKVFEFDPNNPEKIIEELEKLLPEDYKLDEIVFESGASAGG [r13_519_TrMRF] | 0.752 ± 0.032 kcal/mol | 2.12 ± 0.058 kcal/mol | 1.74 ± 0.1 kcal/mol
19 | SAGGSAGGSAGMVTVGDTEVVIEKDPNSDKYTVTVTPADGTTETLTFDSEEEVERYIEAKSAGGSAGGSAGG [r11_238_JUSTAS] | 1.49 ± 0.051 kcal/mol | 1.7 ± 0.035 kcal/mol | 1.61 ± 0.052 kcal/mol
20 | SAGGSAGGSGSMKVYTHNVPPGQELTITITRGSSSTTLTFPPNTTVTITVPTSSPATITLTAPSAGGSAGGS [r12_550_JUSTAS] | 1.39 ± 0.031 kcal/mol | 1.87 ± 0.054 kcal/mol | 1.74 ± 0.07 kcal/mol
21 | SMLKPGDIVKLPNGPIYVVKKLTISYDPSTSPPKLELELVPLGEPKPVLKEYTLPDGSTKTEIGYYWTGPSA [r9_914_TrMRF] | 0.922 ± 0.031 kcal/mol | 0.995 ± 0.11 kcal/mol | 0.98 ± 0.12 kcal/mol
